What all share (assay type): cell-based
For one assay, the system named is RAJI-CD19-KO cells. The assay can be described thus: JNG assay, co-culture with RAJI-CD19-KO cells. To be noted: co-culture with Raji-CD19-KO. In outline:
(§1)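 Jurkat-NFAT-GFP (JNG) cells stably expressing SAR constructs via lentiviral transduction and puromycin/blasticidin selection were cocultured with target cells at E:T ~1:2 for ~4–18 h. NFAT-driven GFP was measured by FACS versus parental JNG cells; scores +/- to 5+ denote ~5–50% GFP-positive cells.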

The subject of another assay is L363 cells. The assay can be described thus: JNG assay, co-culture with L363 cells. To be noted: co-culture with L363. Summed up: as §1
The subject of another assay is Nalm6 cells. The assay can be described thus: JNG assay, co-culture with Nalm6 cells. To be noted: co-culture with Nalm6. Summed up: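 NFAT-driven GFP in stably SAR-transduced Jurkat cells after coculture (E:T ~1:2; ~4–18 h), measured by flow cytometry and expressed as % GFP+ cells over parental Jurkat-NFAT-GFP cells.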
Another assay deals with U266 cells. The assay can be described thus: JNG NFAT-GFP induction on co-culture with U266.
The subject of the next assay is RAJI cells. The assay can be described thus: JNG assay, co-culture with RAJI cells. The following applies: JNG cells expressing construct, co-culture with Raji. Summed up: as §1
The subject of the next assay is RS;411. The assay can be described thus: JNG assay, co-culture with RS;411 cells. The following applies: co-culture with RS411. Summed up: as §1

B1: 22220 (protein)
chain: MALPVTALLLPLALLLHAARPACEVQLLESGGGLIQPGGSLRLSCAASGFTFSSHAMTWVRQAPGKGLEWVSAISGSGDYTHYADSVKGRFTISRDNSKNTVYLQMNSLRAEDSAVYYCAKDEDGGSLLGHRGQGTLVTVSSGTGAIGFLRTAEFDIQMTQSPSSLSASVGDRVTITCKASDHINNWLAWYQQKPGQAPKLLIYGATTLETGVPSRFSGSGSGTDYTLTISSLQPEDFATYYCQQSWNTPWTFGQGTKLEIKRLEDLKNVFPPEVAVFEPSKAEIAHTQKATLVCLATGFYPDHVELSWWVNGKEVHSGVCTDPQPLKEQPALNDSRYCLSSRLRVSATFWQNPRNHFRCQVQFYGLSENDEWTQDRAKPVTQIVSAEAWGRADCGITSASYHQGVLSATILYEILLGKATLYAVLVSALVLMAMVKRKDSRGRAKRSGSGATNFSLLKQAGDVEENPGPTSATMDWIWRILFLVGAATGAHSGPEVQLVESGGGLVQAGGSLRLSCAASGRTFSMGWFRQAPGKEREFVAAITYSGGSPYYADSVKGRFTISRDNAKNTVYLQMNSLKPEDTAVYYCAANPTYGSDWNAENWGQGTQVTVSSGSGGGGSGGGGSGGGGSFEQVQLQQPGAELVKPGASVKMSCKASGYAFSSYWINWMKQKPGQGLEWIGQIYPGDGDTNYNGKFKGRATLTADTSSSTAYMQLSSLTSEDSAVYFCARSITTVVGCAMDYWGQGTSVTVSSTRIQNPDPAVYQLRDSKSSDKSVCLFTDFDSQTNVSQSKDSDVYITDKCVLDMRSMDFKSNSAVAWSNKSDFACANAFNNSIIPEDTFFPSPESSCDVKLVEKSFETDTNLNFQNLSVIGFRILLLKVAGFNLLMTLRLWSSRAKRSGSGVKQTLNFDLLKLAGDVESNPGPSRGHMTEYKPTVRLATRDDVPRAVRTLAAAFADYPATRHTVDPDRHIERVTELQELFLTRVGLDIGKVWVADDGAAVAVWTTPESVEAGAVFAEIGPRMAELSGSRLAAQQQMEGLLAPHRPKEPAWFLATVGVSPDHQGKGLGSAVVLPGVEAAERAGVPAFLETSAPRNLPFYERLGFTVTADVEVPEGPRTWCMTRKPGA
As for B1, in the assay with RAJI-CD19-KO cells, the “NFAT-GFP ASSAY: Raji-CD19-KO” value was “+ (refer to approximately 5%, 10%, 20%, 30%, 40% and 50% GFP positive cells)”. Moreover, the “NFAT-GFP ASSAY: L363” value in the assay on L363 cells is “+/- (refer to approximately 5%, 10%, 20%, 30%, 40% and 50% GFP positive cells)”. In addition, the “NFAT-GFP ASSAY: Nalm6” value with Nalm6 cells is “+/- (refer to approximately 5%, 10%, 20%, 30%, 40% and 50% GFP positive cells)”. The “NFAT-GFP ASSAY: U266” value with U266 cells was “+ (refer to approximately 5%, 10%, 20%, 30%, 40% and 50% GFP positive cells)”.

B2: 22245 (protein)
chain: B1 chain
On to B2, for which the “NFAT-GFP ASSAY: Raji-CD19-KO” value in the assay with RAJI-CD19-KO cells was “+ (refer to approximately 5%, 10%, 20%, 30%, 40% and 50% GFP positive cells)”. For the same molecule, the “NFAT-GFP ASSAY: L363” value with L363 cells is “+/- (refer to approximately 5%, 10%, 20%, 30%, 40% and 50% GFP positive cells)”. Further, in the assay with Nalm6 cells, the “NFAT-GFP ASSAY: Nalm6” value was “+/- (refer to approximately 5%, 10%, 20%, 30%, 40% and 50% GFP positive cells)”. For the same molecule, the “NFAT-GFP ASSAY: U266” value in the assay on U266 cells was “+ (refer to approximately 5%, 10%, 20%, 30%, 40% and 50% GFP positive cells)”.

B3: 22217 (protein)
chain: MALPVTALLLPLALLLHAARPACEVQLLESGGGLIQPGGSLRLSCAASGFTFSSHAMTWVRQAPGKGLEWVSAISGSGDYTHYADSVKGRFTISRDNSKNTVYLQMNSLRAEDSAVYYCAKDEDGGSLLGHRGQGTLVTVSSGTGAVVRGAEFDIQMTQSPSSLSASVGDRVTITCKASDHINNWLAWYQQKPGQAPKLLIYGATTLETGVPSRFSGSGSGTDYTLTISSLQPEDFATYYCQQSWNTPWTFGQGTKLEIKRLEDLKNVFPPEVAVFEPSKAEIAHTQKATLVCLATGFYPDHVELSWWVNGKEVHSGVCTDPQPLKEQPALNDSRYCLSSRLRVSATFWQNPRNHFRCQVQFYGLSENDEWTQDRAKPVTQIVSAEAWGRADCGITSASYHQGVLSATILYEILLGKATLYAVLVSALVLMAMVKRKDSRGRAKRSGSGATNFSLLKQAGDVEENPGPTSATMDWIWRILFLVGAATGAHSGPEVQLVESGGGLVQAGGSLRLSCAASGRTFSMGWFRQAPGKEREFVAAITYSGGSPYYADSVKGRFTISRDNAKNTVYLQMNSLKPEDTAVYYCAANPTYGSDWNAENWGQGTQVTVSSGSGGGGSGGGGSGGGGSFEQVQLQQPGAELVKPGASVKMSCKASGYAFSSYWINWMKQKPGQGLEWIGQIYPGDGDTNYNGKFKGRATLTADTSSSTAYMQLSSLTSEDSAVYFCARSITTVVGCAMDYWGQGTSVTVSSTRIQNPDPAVYQLRDSKSSDKSVCLFTDFDSQTNVSQSKDSDVYITDKCVLDMRSMDFKSNSAVAWSNKSDFACANAFNNSIIPEDTFFPSPESSCDVKLVEKSFETDTNLNFQNLSVIGFRILLLKVAGFNLLMTLRLWSSRAKRSGSGVKQTLNFDLLKLAGDVESNPGPSRGHMTEYKPTVRLATRDDVPRAVRTLAAAFADYPATRHTVDPDRHIERVTELQELFLTRVGLDIGKVWVADDGAAVAVWTTPESVEAGAVFAEIGPRMAELSGSRLAAQQQMEGLLAPHRPKEPAWFLATVGVSPDHQGKGLGSAVVLPGVEAAERAGVPAFLETSAPRNLPFYERLGFTVTADVEVPEGPRTWCMTRKPGA
For the molecule B3, in the assay with RAJI cells, the “NFAT-GFP ASSAY: Raji” value is “+ (refer to approximately 5%, 10%, 20%, 30%, 40% and 50% GFP positive cells)”. Further, the “NFAT-GFP ASSAY: Raji-CD19-KO” value in the assay with RAJI-CD19-KO cells is 3+ (refer to approximately 5%, 10%, 20%, 30%, 40% and 50% GFP positive cells). For the same molecule, the “NFAT-GFP ASSAY: L363” value with L363 cells was 3+ (refer to approximately 5%, 10%, 20%, 30%, 40% and 50% GFP positive cells). The “NFAT-GFP ASSAY: Nalm6” value with Nalm6 cells is 4+ (refer to approximately 5%, 10%, 20%, 30%, 40% and 50% GFP positive cells). The “NFAT-GFP ASSAY: U266” value with U266 cells was 4+ (refer to approximately 5%, 10%, 20%, 30%, 40% and 50% GFP positive cells).

B4: 22135 (protein)
chain: MALPVTALLLPLALLLHAARPACEVQLLESGGGLIQPGGSLRLSCAASGFTFSSHAMTWVRQAPGKGLEWVSAISGSGDYTHYADSVKGRFTISRDNSKNTVYLQMNSLRAEDSAVYYCAKDEDGGSLLGHRGQGTLVTVSSGTGGGGSGGGGSGGGGSEFDIQMTQSPSSLSASVGDRVTITCKASDHINNWLAWYQQKPGQAPKLLIYGATTLETGVPSRFSGSGSGTDYTLTISSLQPEDFATYYCQQSWNTPWTFGQGTKLEIKRLEDLKNVFPPEVAVFEPSEAEISHTQKATLVCLATGFYPDHVELSWWVNGKEVHSGVCTDPQPLKEQPALNDSRYCLSSRLRVSATFWQNPRNHFRCQVQFYGLSENDEWTQDRAKPVTQIVSAEAWGRADCGFTSESYQQGVLSATILYEILLGKATLYAVLVSALVLMAMVKRKDSRGRAKRSGSGATNFSLLKQAGDVEENPGPTSATMDWIWRILFLVGAATGAHSGPEVQLVESGGGLVQAGGSLRLSCAASGRTFSMGWFRQAPGKEREFVAAITYSGGSPYYADSVKGRFTISRDNAKNTVYLQMNSLKPEDTAVYYCAANPTYGSDWNAENWGQGTQVTVSSGSGGGGSGGGGSGGGGSFEQVQLQQPGAELVKPGASVKMSCKASGYAFSSYWINWMKQKPGQGLEWIGQIYPGDGDTNYNGKFKGRATLTADTSSSTAYMQLSSLTSEDSAVYFCARSITTVVGCAMDYWGQGTSVTVSSTRIQNPDPAVYQLRDSKSSDKSVCLFTDFDSQTNVSQSKDSDVYITDKCVLDMRSMDFKSNSAVAWSNKSDFACANAFNNSIIPEDTFFPSPESSCDVKLVEKSFETDTNLNFQNLSVIGFRILLLKVAGFNLLMTLRLWSSRAKRSGSGVKQTLNFDLLKLAGDVESNPGPSRGHMTEYKPTVRLATRDDVPRAVRTLAAAFADYPATRHTVDPDRHIERVTELQELFLTRVGLDIGKVWVADDGAAVAVWTTPESVEAGAVFAEIGPRMAELSGSRLAAQQQMEGLLAPHRPKEPAWFLATVGVSPDHQGKGLGSAVVLPGVEAAERAGVPAFLETSAPRNLPFYERLGFTVTADVEVPEGPRTWCMTRKPGA
B4: in the assay on L363 cells, the “NFAT-GFP ASSAY: L363” value was 2+ (refer to approximately 5%, 10%, 20%, 30%, 40% and 50% GFP positive cells). The “NFAT-GFP ASSAY: RS411” value in the assay with RS;411 is 2+ (refer to approximately 5%, 10%, 20%, 30%, 40% and 50% GFP positive cells). In the assay with U266 cells, the “NFAT-GFP ASSAY: U266” value was 3+ (refer to approximately 5%, 10%, 20%, 30%, 40% and 50% GFP positive cells).
